Columns and labels:
Anti-roIFNT antibody [1] = experiment: competitive RIA, unlabelled IFNT displacing 125I-roIFNT from the antibody; less dilute primary antibody
Anti-roIFNT antibody [2] = experiment: competitive RIA, unlabelled IFNT displacing 125I-roIFNT from the antibody; primary antibody at 1:60,000

amount of ligand required to displace 50% binding (Anti-roIFNT antibody [1]): 1.5 ng | amount of ligand required to displace 50% binding (Anti-roIFNT antibody [2]): 0.4 ng
Substance: recombinant ovine IFNT (roIFNT) (ligand)
